Measured values as given in patent publication US20130059773A1, “COMPOUNDS FOR THE TREATMENT OF INFLAMMATION AND NEUTROPENIA” (priority 2010, published 2013).

T1: procaspase-9 (Homo sapiens, UniProt P55211)
T1 construct: using neutrophil cytosol containing all the apoptosome components, i.e., procaspase-9; endogenous in cells; host or cells: neutrophil cytosol (primary neutrophils)
T1 sequence (P55211 1-416): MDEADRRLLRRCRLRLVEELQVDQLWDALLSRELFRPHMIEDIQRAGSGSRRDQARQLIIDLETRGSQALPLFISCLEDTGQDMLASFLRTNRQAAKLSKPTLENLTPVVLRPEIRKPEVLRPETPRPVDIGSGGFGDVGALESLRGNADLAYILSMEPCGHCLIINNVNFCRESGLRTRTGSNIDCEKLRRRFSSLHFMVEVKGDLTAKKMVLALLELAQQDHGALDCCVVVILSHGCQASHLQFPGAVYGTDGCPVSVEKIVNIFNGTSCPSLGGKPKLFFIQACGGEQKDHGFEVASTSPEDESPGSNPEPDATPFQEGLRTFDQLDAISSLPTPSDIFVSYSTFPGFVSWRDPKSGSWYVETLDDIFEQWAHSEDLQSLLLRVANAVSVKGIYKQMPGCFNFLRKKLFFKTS

B1: Ovalbumin: control protein tested at the same concentration (protein, UniProt P01012 2-386, looked up)
Ovalbumin: GSIGAASMEFCFDVFKELKVHHANENIFYCPIAIMSALAMVYLGAKDSTRTQINKVVRFDKLPGFGDSIEAQCGTSVNVHSSLRDILNQITKPNDVYSFSLASRLYAEERYPILPEYLQCVKELYRGGLEPINFQTAADQARELINSWVESQTNGIIRNVLQPSSVDSQTAMVLVNAIVFKGLWEKAFKDEDTQAMPFRVTEQESKPVQMMYQIGLFRVASMASEKMKILELPFASGTMSMLVLLPDEVSGLEQLESIINFEKLTEWTSSNVMEERKIKVYLPRMKMEEKYNLTSVLMAMGITDVFSSSANLSGISSAESLKISQAVHAAHAEINEAGREVVGSAEAGVDAASVSEEFRADHPFLFCIKHIATNAVLFFGRCVSP
B2: G-CSF: survival factor extending neutrophil longevity (protein, UniProt P09919 31-207, looked up)
Granulocyte …: TPLGPASSLPQSFLLKCLEQVRKIQGDGAALQEKLVSECATYKLCHPEELVLLGHSLGIPWAPLSSCPSQALQLAGCLSQLHSGLFLYQGLLQALEGISPELGPTLDTLQLDVADFATTIWQQMEELGMAPALQPTQGAMPAFASAFQRRAGGVLVASHLQSFLEVSYRVLRHLAQP

Columns and labels:
procaspase-9 = molecular target: T1, procaspase-9; assay: In vitro procaspase-9 activation assay using neutrophil cytosol, cytochrome c and dATP; assay type: biochemical; design: dose or concentration left out as unconfirmed
Protocol: That hypothesis was tested by evaluating procaspase-9 cleavage in an in vitro assay, using neutrophil cytosol containing all the apoptosome components, i.e., procaspase-9 and apoptotic protease-activating factor-1 (Apaf-1) as previously described (McStay et al. 2008; Cell Death Differ. 15:322-331).

neutrophils [1] = assay: Neutrophils isolated from G-CSF-treated healthy donors: PCNA content and constitutive apoptosis; assay type: in vivo, human
Protocol: Neutrophil isolation, granulocytic differentiation of CD34^+ precursors and cell culture. Human neutrophils from healthy (Etablissement Francais du Sang, Paris) or G-CSF-treated healthy donors ([…] for 5 days to induce hematopoietic stem cells mobilization) (Biotherapy Department, Necker Hospital, France) were isolated from EDTA-anticoagulated blood, using density-gradient centrifugation through polymorphoprep (Nycomed), as described in Witko-Sarsat et al. (1999, Blood 94:2487-2496). […]
(§1) Western blot analysis and co-immunoprecipitation experiments. Neutrophils were sonicated and cytosolic proteins were analyzed using either the PC10 mAb or the Ab5 pAb anti-PCNA according to standard immunoblot procedures (Moriceau et al. 2009, J. Immunol. 182:7254-7263). […] The sample was eluted from the column with […] 5× sample buffer and analyzed by Western blotting using different mAb to potential partners. PCNA was detected on the Western blot with the PC10 mAb and procaspases were detected with either anti-procaspase-8 (Calbiochem) mAb or mouse anti-procaspase-10 (Santa Cruz) or anti-procaspase-9 (Santa Cruz) or anti-procaspase-3 (Santa Cruz) mAbs, followed by horseradish peroxidase-conjugated anti-mouse IgG (Nordic Immunology diluted 1:5000), using the SuperSignal West Pico detection kit (Pierce).

PCNA = PCNA expression in neutrophils by Western blot; assay type: cell-based, human; conditions: G-CSF 1000 U/ml, 6 h to 15 h
Protocol: as §1, with “182:7254-7263). Co-immunoprecipitation experiments were performed using neutrophil cytosols obtained by cavitation (Witko-Sarsat et al. 1999, Blood 94:2487-2496). Cytosol ([…]) was mixed with […] of protein G and Ab5 pAb and incubated for 30 min at 4° C. under shaking. The sample was loaded onto a column containing Sepharose-coated magnetic beads (Milteny), washed with a stringent washing buffer (50 mM Tris, 500 mM NaCl, 1% NP-40, 0.5% Triton X-100).” for “182:7254-7263).”

neutrophils [2] = assay: Neutrophil apoptosis/survival by phosphatidylserine externalization after annexin-V and 7-AAD labeling; assay type: cell-based, human; conditions: G-CSF 200 or 1000 U/ml, 15 h at 37° C.
Protocol: Analysis of apoptosis. Neutrophil apoptosis was triggered by incubating neutrophils at 37° C. alone (constitutive apoptosis) or with anti-Fas mAb (10 ng/ml; Beckman-Coulter) or gliotoxin ([…]; Sigma) (Ward et al. 1999, J. Biol. Chem. 274:4309-4318) for the indicated times. Neutrophil apoptosis was evaluated by phosphatidylserine externalization after annexin-V and 7-AAD labeling (Kantari et al. 2007, Blood 110:4086-4095); mitochondrial depolarization after DiOC6 labeling (Moriceau et al. 2009, J. Immuno1.182:7254-7263); caspase-3 and caspase-8 activities measured by spectrophotometry (Biovision) in neutrophil lysates. In DMF-differentiated-PLB985 cells, apoptosis was triggered by gliotoxin or by rTRAIL (10 ng/ml; RD System) (Yin et al. 2005, Int. J. Biochem. Cell Biol. 37:1696-1708) and caspase-8 and caspase-9 activities were determined after gating on CD11b^+ cells using the Caspase-Glow® assay (Promega). Apoptosis-induced chromatin condensation and DNA fragmentation were assessed, respectively, after DNA staining with the blue fluorescent dye Hoechst (5 mg/ml) and propidium-iodide staining (Goepel et al. 2004, J. Leukoc. Biol. 75:836-843). Carboxyp21 ([…], SEQ ID NO: 24) corresponding to the p21 carboxy-terminus sequence (residues 141-160) and containing a RYIRS carboxy-terminal extension to facilitate its cell entry was synthesized and purified (Genecust). […]

Row | Molecule | Procaspase-9 cleavage / activation (procaspase-9) | PCNA content of neutrophils from treated donors (immunoblotting) (neutrophils [1]; healthy donors treated with G-CSF for 5 days, compared to before treatment) | Constitutive apoptosis of neutrophils from treated donors (neutrophils [1]; healthy donors treated with G-CSF, 15-h culture) | Effect on decrease of PCNA expression during incubation at 37° C. (PCNA) | Neutrophil survival (annexin-V− 7-AAD− cells) (neutrophils [2])
1 | B1 | did not affect pro-caspase 9 activation |  |  |  | 
2 | B2 |  | markedly increased | decreased tendency of these neutrophils to undergo constitutive apoptosis | totally prevented | prolonged neutrophil survival
